According to PMC10903085 (Neurotherapeutics, 2023):

Biological target: His-Tau-Strep (human 4R2N Tau) (human, UniProt P10636-8 1-441)
Assay: AlphaScreen or HTRF

B1: GST-Fyn-SH3-Strep (human Fyn-SH3 domain) (domain or fragment)
chain: not shown
  binding result: binds
